From patent US7329737 (DYAX, dated 2008) come the findings set out here.

This experiment concerns the target T1, hK1 (human tissue kallikrein 1), recombinant (human, UniProt P06870 25-262).
T1 construct: Expressed in P. pastoris from KLK1 cDNA and purified; enzymatically active; also called KLK1; Recombinant (Pichia) Kallikrein
As to the kind of experiment: SPR.

B1: M0118-E07 (Fab, V domains shown)
VH: EVQLLESGGGLVQPGGSLRLSCAASGFTFSHYPMDWVRQAPGKGLEWVSRIYPSGGATKYADSVKGRFTISRDNSKNTLYLQMNSLRAEDTATYYCARGGGAFDIWGQGTMVTVSS
VL: DIQMTQSPSSLSASVGDRVTITCRASQGISNYLAWYQQKPGKVPKLLIYAASTLQSGVPSRFSGSGSGTDFTLTISSLQPEDVATYYCQKYNSAPLTFGGGTKVEIKR
With B1, the Kd turned out to be 31.8 nM, the koff came to 0.0871 s⁻¹ and the kon is 2.74e+06 M⁻¹ s⁻¹.

B2: M0102-C12 (Fab, V domains shown)
VH: EVQLLESGGGLVQPGGSLRLSCAASGFTFSHYLMGWVRQAPGKGLEWVSVIWPSGGITKYADSVKGRFTISRDNSKNTLYLQMNSLRAEDTAVYYCARGNGGFDSWGQGTLVTVSS
VL: DIQMTQSPSSLSASVGDRVTITCRASQGISNYLAWYQQKPGKVPKLLIYAASTLQSGVPSRFSGSGSGTDFTLTISSLQPEDVATYYCQKYNSAPWTFGQGTKVEIKR
Consider B2, for which the Kd came out at 35.4 nM, the off-rate (koff) is 2.62 s⁻¹ and the kon came to 7.39e+07 M⁻¹ s⁻¹.

B3: M0102-H02 (Fab, V domains shown)
VH: EVQLLESGGGLVQPGGSLRLSCAASGFTFSMYRMFWVRQAPGKGLEWVSVIGPSGGQTAYADSVKGRFTISRDNSKNTLYLQMNSLRAEDTAVYYCARVGVWYGMDVWGQGTTVTVSS
VL: DIQMTQSPATLSLSPGERAALSCRASQSVSNFLAWYQQKPGQAPRLLIYGASNRATDIPARFSGSGSGTDFTLTISSLEPEDFATYYCQQANSFPLTFGGGTKVEIKR
On to B3, for which the dissociation constant (Kd) was 30.8 nM, the koff was 0.0105 s⁻¹ and the kon turned out to be 340000 M⁻¹ s⁻¹.

B4: M0093-E11 (Fab, V domains shown)
VH: EVQLLESGGGLVQPGGSLRLSCAASGFTFSHYEMAWVRQAHGKGLEWVSVIYPSGGATRYADSVKGRFTISRDNSKNTLYLQMNSLRAEDTAVYYCARVAQYYGMDVWGQGTTVTVSS
VL: DIQMTQSPATLSLSPGERATLSCRASQSVSSYLAWYQQKPGQAPRLLIYDASNRATGIPARFSGSGSGTDFTLTISSLEPEDFAVYYCQQRSNWLTFGGGTKVEIKR
As for B4, the Kd came out at 32.4 nM, the off-rate constant (koff) amounted to 0.0436 s⁻¹ and the kon was found to be 1.34e+06 M⁻¹ s⁻¹.

B5: M0107-B05 (Fab, V domains shown)
VH: EVQLLESGGGLVQPGGSLRLSCAASGFTFSHYLMMWVRQAPGKGLEWVSSIRSSGGITRYADSVKGRFTISRDNSKNTLYLQMNSLRAEDTAVYYCARVGYYYGMDVWGQGTTVTVSS
VL: AQSELTQPASVSGSPGQSITISCTGTSSDVGAYNYVSWYQQHPGKVPKLMIYEVSNRPSGVSNRFSGSKSGNTASLTISGLQAEDEADYYCNSYTTSATLVFGGGTKLTVLS
Consider B5, for which the Kd was found to be 33.8 nM, the koff was determined as 0.0203 s⁻¹ and the kon was 600000 M⁻¹ s⁻¹.

B6: M0097-F08 (Fab, V domains shown)
VH: EVQLLESGGGLVQPGGSLRLSCAASGFTFSNYPMVWVRQAPGKGLEWVSVIGPSGGKTKYADSVKGRFTISRDNSKNTLYLQMNSLRAEDTAVYYCARVGVWYGMDVWGQGTTVTVSS
VL: DIQMTQSPSTLSASVGDRVTISCRASQGIGTHLNWYQQKLGNVPKLLIYAASGLQSGVPPRFSGSGSGTDFTLTISSLHPEDSATYFCQQSYSVPRTFGQGTKVEIKR
Regarding B6, the Kd worked out at 33.1 nM, the koff was 0.0117 s⁻¹ and the kon amounted to 353000 M⁻¹ s⁻¹.

B7: M0092-G06 (Fab, V domains shown)
VH: EVQLLESGGGLVQPGGSLRLSCAASGFTFSHYGMNWVRQAPGKGLEWVSSIWSSGGYTTYADSVKGRFTISRDNSKNTLYLQMNSLRAEDTAVYYCARVGIWYSMDVWGQGTTVTVSS
VL: AQSELTQPRSVSGSPGQSVTISCTGTSGEVANYNYVSWYHQDPGLVPKLKIYDVSRRPSGVPDRFSGAKSGDTASLTISGLQAEDEGDYYCASYVGNDKLVFGGGTKLTVLG
Turning to B7, the Kd is 30.9 nM, the koff is 0.00663 s⁻¹ and the kon was 215000 M⁻¹ s⁻¹.

B8: M0121-H07 (Fab, V domains shown)
VH: EVQLLESGGGLVQPGGSLRLSCAASGFTFSKYYMVWVRQAPGKGLEWVSVIGPSGGWTTYADSVKGRFTISRDNSKNTLYLQMNSLRAEDTAVYYCARVDYSNYFDYWGQGTLVTVSS
VL: DIQMTQSPSSLSASVGDRVTITCRASQSISRYLNWYQQKPGKAPKLLIYAASNLQSGVPSRFSGSGSGRDYTLTISSLQPEDFVTYYCQQSYSTPWTFGQGTKVEIKR
B8: the Kd was 32.8 nM, the koff was 0.0055 s⁻¹ and the kon was 168000 M⁻¹ s⁻¹.

B9: M0094-D08 (Fab, V domains shown)
VH: EVQLLESGGGLVQPGGSLRLSCAASGFTFSHYLMVWVRQAPGKGLEWVSGIVPSGGYTMYADSVKGRFTISRDNSKNTLYLQMNSLRAEDTAVYYCTRASYSSFGLDYWGQGTLVTVSS
VL: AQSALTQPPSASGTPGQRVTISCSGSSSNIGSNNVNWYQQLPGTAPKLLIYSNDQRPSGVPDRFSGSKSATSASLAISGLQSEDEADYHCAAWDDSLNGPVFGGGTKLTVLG
Take B9: the Kd worked out at 29.8 nM, the koff was 0.00707 s⁻¹ and the kon turned out to be 237000 M⁻¹ s⁻¹.

B10: M0136-B06 (Fab, V domains shown)
VH: EVQLLESGGGLVQPGGSLRLSCAASGFTFSSYIMIWVRQAPGKGLEWVSYIRPSGGYTKYADSVKGRFTISRDNSKNTLYLQMNSLRAEDTAVYYCARVINAGPGRGYYWRGYSYSDAFDIWGQGTMVTVSS
VL: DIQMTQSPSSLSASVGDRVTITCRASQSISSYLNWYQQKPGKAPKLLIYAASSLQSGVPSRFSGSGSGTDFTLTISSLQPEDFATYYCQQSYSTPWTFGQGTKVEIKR
As to B10, the Kd is 33 nM, the koff worked out at 0.00661 s⁻¹ and the kon is 200000 M⁻¹ s⁻¹.

B11: M0113-E03 (Fab, V domains shown)
VH: EVQLLESGGGLVQPGGSLRLSCAASGFTFSRYTMFWVRQAPGKGLEWVSGIYPSGGKTIYADSVKGRFTISRDNSKNTLYLQMNSLRAEDTAVYYCATGGVFGVVDYWGQGTLVTVSS
VL: DIQMTQSPSSLSASVGDRVTITCRASQSINSYLNWYQQKPGKAPNLLIYAASSLQNGVPSRFSGSGSGTDFTLTISSLQPEDFAAYYCQQSYSTPLTFGGGTKVEIKR
Regarding B11, the Kd amounted to 31.5 nM and the koff was 500 s⁻¹.

B12: M0124-A01 (Fab, V domains shown)
VH: EVQLLESGGGLVQPGGSLRLSCAASGFTFSNYPMYWVRQAPGKGLEWVSRIGPSGGHTDYADSVKGRFTISRDNSKNTLYLQMNSLRAEDTAVYYCARAGVWSGLDYWGQGTLVTVSS
VL: DIQMTQSPSSLSASVGDRVTITCRASQSITGYLNWYQQKPGKAPKLLIYAASSLQSGVPSRFSGSGSGTDFTLSISSLQPEDFATYYCQQSYSTPYTFGQGTKLEIKR
B12: the Kd amounted to 33.9 nM, the koff was determined as 0.0114 s⁻¹ and the kon worked out at 336000 M⁻¹ s⁻¹.

B13: M0096-D03 (Fab, V domains shown)
VH: EVQLLESGGGLVQPGGSLRLSCAASGFTFSHYWMVWVRQAPGKGLEWVSWIGPSGGGTVYADSVKGRFTISRDNSKNTLYLQMNSLRAEDTAVYYCARGNGGFDSWGRGTLVTVSS
VL: AQSELTQPRSVSGSPGQSVTISCTGTTRDVGAYKYVSWYQQYPGKAPKLMLSDVSKRPSGVPDRFSGSKSGNTASLTISGLQSEDEADYYCCSFAGSYTWIFGGGTKVTVLG
With B13, the Kd worked out at 28.1 nM, the koff came out at 0.00945 s⁻¹ and the kon turned out to be 337000 M⁻¹ s⁻¹.

B14: M0115-F08 (Fab, V domains shown)
VH: EVQLLESGGGLVQPGGSLRLSCAASGFTFSHYVMVWVRQAPGKGLEWVSSIYPSGGMTVYADSVKGRFTISRDNSKNTLYLQMNSLRAEDTAVYYCARRGIANSFNIWGQGTMVTVSS
VL: AQSELTQPASVSGSPGQSITISCTGTSSDVGGYNYVSWYQQHPGKAPKLMIYEVSNRPSGVSNRFSGSKSGNTASLTISGLQAEDEADYYCSSYTSSSTWVFGGGTKLTVLG
Take B14: the Kd turned out to be 32.6 nM, the koff came to 0.0158 s⁻¹ and the kon was determined as 484000 M⁻¹ s⁻¹.

B15: M0103-E09 (Fab, V domains shown)
VH: EVQLLESGGGLVQPGGSLRLSCAASGFTFSHYSMLWVRQAPGKGLEWVSSIRPSGGFTKYADSVKGRFTISRDNSKNTLYLQMNSLRAEDTAVYYCARRGVWDAFDIWGQGTMVTVSS
VL: AQYELTQPASVSGSPGQSITISCTGTNTDVGGYNFVSWYQQYPGKAPKLIIFDVTNRPSGVSNRFSGSKSGNTASLTISGLQAEDEADYYCCSYTNTNTLVFAGGTKVTVLG
In the case of B15, the Kd amounted to 36.4 nM, the koff is 0.00884 s⁻¹ and the kon turned out to be 243000 M⁻¹ s⁻¹.

B16: M0124-C12 (Fab, V domains shown)
VH: EVQLLESGGGLVQPGGSLRLSCAASGFTFSWYTMQWVRQAPGKGLEWVSRIYSSGGGTYYADSVKGRFTISRDNSKNTLYLQMNSLRAEDTAMYYCARVGPWGAFDIWGQGTMVTVSS
VL: DIQMTQSPGTLSLSPGERATLSCRASQSVSSNYLAWYQQKPGKAPKLLIYAASSLQSGVPSRFSGSGSGTDFTLTISSLQPEDFATYYCQQRWTFGQGTKVEIKR
Consider B16, for which the Kd is 32.5 nM, the koff is 0.126 s⁻¹ and the kon came out at 3.89e+06 M⁻¹ s⁻¹.

B17: M0122-A05 (Fab, V domains shown)
VH: EVQLLESGGGLVQPGGSLRLSCAASGFTFSHYPMHWVRQAPGKGLEWVSSIWPSGGHTSYADSVKGRFTISRDNSKNTLYLQMNSLRAEDTATYYCARLSQPIWGQGTLVTVSS
VL: DIQMTQSPSSFSASTGDRVTITCRASQSISRWLAWYQQKPGKAPKLLIYEASTLESGVPSTFSGSGSGTEFTLTISSLQPDDFATYYCQQYNSYPLTFGGGTKVEIKR
For B17, the Kd stood at 30.8 nM, the koff was determined as 0.00453 s⁻¹ and the kon is 147000 M⁻¹ s⁻¹.

B18: M0131-G06 (Fab, V domains shown)
VH: EVQLLESGGGLVQPGGSLRLSCAASGFTFSSYAMTWVRQAPGKGLEWVSSISSSGGDTAYADSVKGRFTISRDNSKNTLYLQMNSLRAEDTAVYYCATERHYIWGSYRYSWFDPWGQGTLVTVSS
VL: AQYELTQAPSASGTPGQRVTISCSGSRSNIGTNPVNWYQHVPGTAPKLLILVNNQRPSGVPDRFSGSKSGASASLAISGLQSEDEAEYYCATWDGSLNGPVFGGGTKLTVLR
Regarding B18, the Kd was determined as 29.7 nM, the koff is 0.00209 s⁻¹ and the kon amounted to 70300 M⁻¹ s⁻¹.

B19: M0114-F04 (Fab, V domains shown)
VH: EVQLLESGGGLVQPGGSLRLSCAASGFTFSHYYMAWVRQAPGKGLEWVSYISPSGGSTKYADSVKGRFTISRDNSKNTLYLQMNSLRAEDTAMYYCARGGGTGTFDIWGQGTMVTVSS
VL: AQSELTQPASVSGSPGQSIAISCTGTSSDIGAYPFVSWYQQHPGKAPKLLIYGVTTRPFGVSDRFSGSKSGSTASLTISGLQAEDEADYYCSSYAGGRNLPYVFGTGTTVTVLG
Regarding B19, the Kd was 30.7 nM, the koff turned out to be 0.0107 s⁻¹ and the kon came to 348000 M⁻¹ s⁻¹.
